We go through 19 sequences from a protein production outcome set (Wang et al. 2014).
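Note: failed if final PepcDB status was selected cloned or expressed and not failed if soluble or beyond.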

The nature of this data set: label from the status in PepcDB records.
On to “QTDPKKPTTDEGTASSEVNATEEMSTLVNYIEPVKFKSFEAARKRNKCFEMSSFVETKAMEQLTKSPMEFVEYNKQQLSRIYPKGTRVDSSNYMPQLFWNVGCQLVALNFQTLDVAMQLNAGVFEYNGRSGYLLKPEFMRRPDKSFDPFTEVIVDGIVANALRVKVISGQFLSDRKVGIYVEVDMFGLPVDTRRKYRTRTSQGNSFNPVWDEEPFDFPKVVLPTLASLRIAAFEEGGKFVGHRILPVSAIRSGYHYVCLRNEANQPLCLPALLIYTEASDYIPDDHQDYAEALINPIKHVSLMDQRARQLAALIGESEAQAGQETCQDTQSQQLGSQPSSNPTPSPLD”, for which the protein production entry is “failed”.

“MFALISKINPGAWWLIFAIATDVLSTFYSAKGNGLVNKTAQGIALVLYIISFACAAIALKYMQAGILYVLWSGVGVLATAFLAKIFLGQNIDVAGWIGIGFITVGLMIIAQYY”: the protein production result is “failed”. Consider “AIAAIAEKAKGKEWTSTEKSREEDQQASNQPNSIALPGTSAKRTKEKMSVKGSKVLCPKKKAEHTDNPRPQKKIPIPPLPSKLPPVNLIHRDILRAWCQQLKLSSKGQKLDAYKRLCAFAYPNQKDFPSTAKEAKIRKSLQKKLKVEKGETSLQSSETHPPEVALPPVGEPPALENSTALLEGVNTVVVTTSAPEALLASWARISARARTPEAVESPQEASGVRWCVVHGKSLPADTDGWVHLQFHAGQAWVPEKQEGRVSALFLLPASNFPPPHLEDNMLCPKCVHRNKVLIKSLQWE”, for which the protein production result is listed as “failed”.

Regarding “MPGFLTADLIRARLAPKDFQRGEEYLKDGRVLKAEWVADDEISGQVAGSAGRRYVQTITLENGLGGLSIVGYCSCPVGFACKHVAAVLLTLAREAEPVVPAWDGSFGARPAQAAVSEPTLDPALAEWIAAVAGFEEVGDPEAYPPAIRHRLIYVVGPQGEGGVPQNGEGRSESRGGGRVSAEIEVTLWSIAVLKDGQMSSVERRILSADALVRSPARPAYLRPSDLALVPRLAALRAPGGGNALLLPQISGSELFAAMVASGRCRWGGPDGPTLYPGAARRAKLVWRSDGEGWQRPAIEPEAMAPEAADPETAQPDIGQPYIAQPAIPEIGALDGEAVEAPTRTDPDDASPAPEDGESGQSPEAEAWDLRALPIEPPAYVDPRSGETGPLDLGLDPRLAARLLSAPPIPPTSVDAVRSRLGALLPAAVPVLPAPIDAQPLSVAPQPILRLLALRAVPRMRGAEMPGETTQALVARPCFAYDSVILPADSSEPAPLRMVGASLMRIERDFAAEGTALRQLDRIGPLRVAEALGRVRVEGGISADRLIAPPFLPRGEERERAVDFLRDGVPDLEEAGWRIEIDPDFPVRPVVADSQDWWGGLNAVGGLEGTVGGWLSVGLGVTIDGERVDLLPALLTLLGEGEDLVEREEDELLYLPLGDGRVLPVAVRRLRPIFHALHAVAVPDERAGPGVRLSGRDLGPLALLEEAGKPLGVVWEGAEGARDIARRLAVVGLREAVAPPKGLVGSLRAYQNEGLDWLQFLRANNLGGILADDMGLGKTLQTLAHILVEKESGRLNDPVLIVAPTSVLGAWRREAAQFAPGLRLVVLHGPERAAGFSQMADQDVVVTSYALVRHDLEVLKAQPWHMLVLDEAQTIRNPQTVQYKAVAALKARHRLFLTGTPLENHLGDLWALMDLLMPGLLGDGATFRRVFRGPIEKRGDGPRRRALAVRVRPFILRRTKDEVATDLPAKTEMIDMVELEGGQRDLYEAVRLAAHKAIREVLAEKGLARGRIHILAALTRLRQVCCDPRLVKGGPRKPPPSAKLDRLEEMLRDLVDEGRRTLVFSAFPSMLALVEERLAAASIPWVSLTGETRDRDTPVTRFQSGAVPVFLISLKAGGTGLTLTAADTVIHYDPWWNPAVEAQATDRAHRIGQDKPVFVHKLVAAGTVEERILALQDRKRGLLDGLFDGEAGPSSLLSEEVIEEILRPLG”, the protein production result was “failed”. As for “MLEIPEDRCERHRLFKAIDDAFKAGDFDGLGKALGGSPGWFDERMPFELGLGHPLEYAIYWSPVGFISTLLDAGSDPNYQDHGGFPAIIAALSTDRADRLEVVRVLIEAGADPNMRGVNDWTPLHYSVGIRSAEAIHLLLAAGADPTLATRIDDYTTAFEEADKAGFEAGASLLRDAIARRGFNR”, the entry is “failed”; as for “MIQVGDRFYDQAIVQTMGARAAEAVGLSDRPELSFAVCLSDPAEFLALLLAIREAGASVLPIHPSTPRAAARRLAIDLGCHRLVTDELAVEDLGAEDPGPGGLLQTTSGTTGEPKRIARSWAEIDREIDSYVATFVAPQDMTPLIACPITHSYGLICGVLVALRRGQVPHILGTANPKYLIARLRQTRQPLLYSSPAMLHAIARLLPAGEMIHAAMTSGTLLPDQWLMTIRARTTHLFQQYGCSEAGCVAINPNLSASGDMGAPLPHLRVEAGDTDQPREIVVHVGDRAIRTADLGYTKADGTLVFVGRLDDTINVSGLNVYPKEVEDVVMAMPGVTDAVVFRRLDSLAGERVAVAFSAEHSIAPADLRDWCIKNLAAHQVPMETVRLPRLPRQANGKISRREIAALHAEGRLELLAEETAA”, “failed”.

As for “MSLTNTKTGFSVKDILDLPDTNDEEGSITGTEEDTEGSEATKTPGVLVQSPLENVQNLPLKNPFYDNSDNPYTRWLATTDSIQYSLHGLSANSQDTSAKSPEPSADESPDNDKETSSNGSDSGKKQKEGALFQGTNLRTRAPV”, the protein production entry is given as “failed”. As for “MASKSQKKVLKKQNKKKKKDPLAPKRALSAYMFYVKDKRLEIIKEKPELAKDVAQVGKLIGEAWGQLSPAQKAPYEKKAQLDKVRYSKEIEEYRKKNQE”, the protein production result was “failed”. Take “AADERVKEMWAYSPSMDRNVPLVVITADESAGPRPVIYLLNGGDGGEGAANWVMQTDVLDFYLEKNVNVVIPMEGKFSYYTDWVEENASLGGKQMWETFLVKELPGPLEEKLNTDGQRAIAGMSMSATTSLLFPQHFPGFYDAAASFSGCAATSSLLPWEYLKLTLDRGNATPEQMWGPRGGEYNIYNDALINSDKLRGTELYVSNASGLAGEWESVDSPRFEGLNQQVQSIAMAETVVTGGIIEAATNKCTHDLKAKLDSAGIPADWNLRPTGTHSWGWWQDDLRGSWTTFARAFEL”: the protein production result was “failed”. Take “MEDAAEQERGFHVITIRKQIVTAALPLQDHWLPLSNLDLLLPPVQISVCFCYKKPRHFLSVAETLKASLAEALVSYYAFAGELVKNSSGEPEILCNNRGVDFLEAVADVELRELNLHDPDESIAKLVPKKKHGVIAIQVTQLKCGSIVVGCTFDHRIADAFSMNMFLVSWAEISRFNAPISSVPSFRRSILNPRRPLIIDSSIDKMYMPVTSLPLPQETTNDLDNILTSRIYYIKENALEDLQTLASGSSPKTGYGQRTKLESFSAFLWKLVAKHTGRDLVSNKNSKMGIVVDGRRRLMEKEDNTYFGNVLSIPFGGQSIDDLIDKPLSWVTNEVHRFLEEAVTKEHFLNLIDWVEIHRPIPAVSRIYSTGTDDGPAFVVSSGRSFPVNKVDFGWGLPVFGSYHFPWEGSSGYVMPMPSPVDDGNGDWVVYLHLTKGQLKFIEEEASHVLKPIDNYYLKINTIN”: the protein production result is “failed”. In the case of “MTNSEVSTDLPDKPTSDNEQPDKATSDKEQLGKPPSDRDLRNPTSRLRARLQLIGGALASIAAIGAIAGGLVGYWTVWKTLRTDVFPDKQQTQREATARPDVAPRLSLVVLPFANLNNDPEQDYFADSITTDLTTDLAQMPGAFVIGRGTAFTFKNKQIDFKTLGKELGIRWAVQGAVRRNGDQIRVNVSLTDAASGRDIWSDRFDGDRTNLAALQDQITGRLARSLNIELMQAESRRSEKDQSRNPDAMDFTMRGWAKFYEPRSKTEIAQAKDLFDRALHLDPDNVDAMIAKAWCLAIAAGFRWSTSMAEDKEIATDLIDRALAKSSSNALAYVVKGDTLRVFGRPEEALPEYDAALEINPNFPIAYAQKGLALILSGRAREAFSPLQLALRLSPKDPIAVSWYYNLCHAHLHLQEYEEATKDCRRVININNAFWYAYVDLVSAYGASGQLEPARQSLTELNKIRPDFTIQWFREFGYGYSSNPQFRREFDEILDGLRKGGVREQ” it was “failed”; in that of “MANTSSDWAGAPQNASADGEFVRDTNYIDDRIVADVPAGSEPIAQEDGTFHWPVEAGRYRLVAARACPWAHRTVITRRLLGLENVISLGLTGPTHDVRSWTFDLDPNHLDPVLQIPRLQDAYFNRFPDYPRGITVPALVEESSKKVVTNDYPSITIDFNLEWKQFHREGAPNLYPAELREEMAPVMKRIFTEVNNGVYRTGFAGSQEAHNEAYKRLWVALDWLEDRLSTRRYLMGDHITEADIRLYPTLVRFDAVYHGHFKCGRNKITEMPNLWGYLRDLFQTPGFGDTTDFTEIKQHYYITHAEINPTRIVPVGPDLSGFATPHGREKLGGSPFAEGVTLPGPIPAGEEVKNPEPFQK”, “not failed”; in that of “MSSRLARFALSGYRIAGIAAYPFARPYLSYRAAKGKEDKRRRLERFGYASAERPRGPLVWFHAASVGETLALIPLIREIRKRDIFVLLTTGTVTSAELTRTRLGDDVIHQYVPLDIKIAVNRFLTYWAPDAAITAESEIWPVTMMELERRHIPQIRVNARLSDRSFDRWKARHDIAESLFSKLALVVAQSDLDAERFRDLGSWPVVISGNLKGDTDPPPCDEALLESYRKQVGNRKTWAAISTFDGEEKAAATVHAAIKSRNGQLTIIVPRHPERGDDVEAMLKGMNLSVARRSRNDVITPGTDIFLGDSIGEMGLYLRLTELAFVGRSLTAEGGQNPLEPAMLGCAVLSGAHVQNFREAYQKLIRAGGGRIIRDVEMLAKAVHYLLVNDNERYKMIDAGNRVIQDMRGALSSTVKALEPYINPLTVSAKLQPRSAIGSWLEHHHHHH”, “failed”.

Turning to “MKKKMITTIIAMLVIVVMLLPTKLGPVIDKYNPFYKTKEYYTVVNTIGQHVGDEWYEYEFIAFDERGKEQKIKKTVKHMLKRDEMLKVYAKGRYGESIEEIEAVNIPINAKSKLLSMRLEHHHHHH”, the protein production entry is given as “not failed”. For the sequence “ELPKKRELCKFYITGFCARAENCPYMHGDFPCKLYHTTGNCINGDDCMFSHDPLTEETRELLDKMLADDAEAGAEDEKEVEELKK”, the protein production result is listed as “not failed”. As for “MKSDYELSLRDYIAIIKDRALVLGVSAAVILAATVAVALMVPPIYQSTGTILVESQQISPELVSTNNTSFADERIEVIRQRVMTRDNLLRIIGKYDLFADKRFSESDKIDQMRNAIVVETLTTYVRGRGEATVAFNVSFEHKQPQVAKEVADELVTLFLNENLKQRTERANETTEFLTQEANKLGAELASLENQLADFKQAHANALPEHQTLRMNMLSRAELEFREVDRDYKAAQEELRYLELELSAANAGLATKVAEGTRPTRADLPEDLPSLKAEYAQLLTRYKDAHPDVVAVKRKIQALEASGGRTAAVSTVSLDAARVRAKMSAAQVRIASLAEQKRELTRKMEGYEAEILEAPQVERGLVTLMRDHDNARKKYEEIRAKEMGAKITESLEQENKAERFVLLEPPLLPEKPIKPNRKKIAALGLVLAPAGGGALVMLLEMLNQRVRGVGALESLLGKRVLVALPYIDTRADVARRKRWRNRLILAALALAAIMIGLVHVFYMPLDVLL”, the entry is “failed”. In the case of “SLPIASTATQMGSNKTRIFARQPAKAPPPLAWLSRPRDPRATAIAAAGQQSSRRVSKRELESHGSATDAWTAIHGVVYDITAYFRFHPGGAEILFIEAAGKDSTAVFDEMHPWVNVAWLLKDYRIGLYAPESEDDGGDDDDDDRTMTSPE” it was “not failed”.

On to “GLDTGALDQQQNNNGRESIRTVNVSVNNAVTKIVSNMSPAVVGVVNIQKSDIWGESGEAGSGSGVIYKKNDHSAYVVTNHHVIEGASQIEISLKDGSRVSADLVGSDQLMDLAVLRVKSDKIKAVADFGNSDKVKSGEPVIAIGNPLGLEFAGSVTQGVISGTERAIPVDSNGDGQPDWNAEVLQTDAAINPGNSGGALLNMDGKVIGINSMKIAESAVEGIGLSIPSKLVIPVIEDLERYGKVKRPFLGIEMKSLSDIASYHWDETLKLPKNVTNGAVVMGVDAFSPAGKAGLKELDVITEFDGYKVNDIVDLRKRLYQKKVGDRVKVKFYRGGKEKSVDIKLSSA”, for which the protein production result was “failed”. In the case of “MQCPIEDRLAIQDLMIAYAHAVDTVSDIDAVLDVFTEDAVFDLSGIGLTPQVGHAGIREFFTNVFANMSHHAHYLTNFAVTGYEGDTASMRAYVIGMGVGKDGRAVTVNGRYFFEVRRTEKGWKATRYTMDFLMPLSGTLDNAK” it was “not failed”.
